Test system: MS2 coat protein
Experiment: apparent KD of MS2 coat protein; designed switch direction (-1 OFF switch, 1 ON switch): 1; higher = weaker reporter binding
In short: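 An oligonucleotide input, 200 uM small-molecule ligand, or no input was present during titration of SNAP-549-labelled MS2 coat protein, which was doubled from 0.7 or 1.5 nM to 3 µM. Designed RNA switches had been transcribed on Illumina chips by stalled E. coli RNA polymerase. Apparent KD per design is the median over clusters of curves fitted to normalised cluster fluorescence.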

[1] = input ligand: microRNA oligo, concentration not stated
[2] = Eterna round: R95, input ligand: FMN 200 uM
[3] = Eterna round: R95, input ligand: microRNA oligo, concentration not stated
[4] = Eterna round: R95, input ligand: none

Sequence | apparent KD of MS2 coat protein (input ligand: FMN 200 uM) [nM] | apparent KD of MS2 coat protein [1] [nM] | apparent KD of MS2 coat protein (input ligand: none) [nM] | apparent KD of MS2 coat protein [2] [nM] | apparent KD of MS2 coat protein [3] [nM] | apparent KD of MS2 coat protein [4] [nM]
UAUGAAUUGCAAGGAUAUUGAUAACAUGAGGAUCACCCAUGUAAUUGUUCGAGUUAGAUUAGUUACAAGAAGGUGCUAUUGUUU [JR_SSNG2_Sub038] (Eterna round: R96, puzzle: Same State NG 2) | 350 | 459 | 337 | – | – | –
UUAAGCCACGAGCAGGAUAUGUAUUAAAAUACAUGAGGAUCACCCAUGUGCAGGUGUAACACCUGACAGAAGGGCCAAUCGCGGC [Soondi - 1] (puzzle: Same State 2) | – | – | – | 256 | 366 | 461
UUAAUGAAGUAAGGAUAUACAUGAGGAUCACUCGUAGAAGGUACUAUACAUGAGGAUCACCCAUGUUCCGGUCCGUAGACUGGA [JL SSNG1 1.02] (Eterna round: R96, puzzle: Same State NG 1) | 1600 | 236 | 841 | – | – | –
GUGGUCAGACAUGAGGAUCACCCAUGUGGAAUAAAUAAGGGAGAGGAUAUAUAAUAUAGGAUAUAAUAGAAGGCUCGGUUGGUG (Eterna round: R96, puzzle: Same State NG 3) | – | 89.5 | – | – | – | –
UUUAGUUGCGGGCAGGAUAUGUAUUAAAAUACAUGAGGAUCACCCAUGUGAGACCGAAAAGGUCUACAGAAGGGCCAAUCGCGAC [Laonerce - 20] (puzzle: Same State 2) | – | – | – | 16.1 | 66 | 79.5
AGAGAACAUGAGGAUCACCCAUGUGGGAGAUGCAUAGGAUAUAGGAGAGAGAGCGAGGAACUAGAAGGAUGAUGGA [JR_SS1_Sub081] (puzzle: Same State 1) | – | – | – | 79.7 | 63.7 | 191
UUAACAUGAGGAUCACCCAUGUAUACGUAGUUUGCAUUUUGACAGGAUAUUGAAUAUCUAUAUAGCAAGAAGGGUCGUUAGUCU [JR_SSNG3_Sub007] (Eterna round: R96, puzzle: Same State NG 3) | 61 | 49.1 | 56.7 | – | – | –
AAUCGUUUGAUAGGAUAUCGCUAUACAUGAGGAUCACCCAUGUUUACCACGCUGGUUUUUCGUACUGAGAAGGAUUCUGAUGAU [JL JR sub007 mod 7] (Eterna round: R96, puzzle: Same State NG 2) | 36.1 | 30.4 | 42.5 | – | – | –
GUGGUCAGACAUGAGGAUCACCCAUGUGGAAUAAAUAACAGACAGGAUAUGUAAUAUAGGAUAUAACAGAAGGGUCGAUUGGUG (Eterna round: R96, puzzle: Same State NG 3) | – | 64.4 | – | – | – | –
GCUAGUAAAAUUGUCAACAUGAGGAUCACCCAUGUAUGUUGGCAGGAUAUCGUUUGCAAAGCAAACGAGAAGGGCUAAACUAGC [Mat - Same State NG 3 - JL Mod - D12] (Eterna round: R96, puzzle: Same State NG 3) | 58.2 | 186 | 171 | – | – | –
AAUAAGUUCAGCUCGUCUUGCGCCGACUGACAUGAGGAUCACCCAUGUGGAUUCCAAGAGAUCCAUUGGCGUGUUUC [Erisdian] (puzzle: Sensor for hsa-mir-208a) | – | – | – | 37.9 | 87.6 | 79
AUUGCUAUCACAGGAUAUCAUGCGAAAAUCGCGUGAGAAGGGUGGACUCUGUCAUUCACGGAGGACAUGAGGAUCACCCAUGUC [SS NG10LRO16] (Eterna round: R96, puzzle: Same State NG 1) | 363 | 18.9 | 45.8 | – | – | –
CCAACGUACAAUUUAGAUCUACAUGAGGAUCACCCAUGUACGGAGGAUAUCAGCUCGAUUAGAGCUGAGAAGGCCGAAUUAAUU [SSNG3/2-A2] (Eterna round: R96, puzzle: Same State NG 3) | 65.7 | 119 | 430 | – | – | –
ACCCGCGGGCCACAUGAGGAUCACCCAUGUGACCGGUGAUCCAAGGAUAUACGUGUGAUAGACGCGUAGAAGGUGGCCAAAACU [Rirazaedat] (Eterna round: R96, puzzle: Same State NG 3) | 127 | 29.3 | 31.9 | – | – | –
UGUUGUAUUACAGGAUAUCUAGUAUUUUCAUUUAGAGAAGGGUAUUCACAUGAGGAUCACCCAUGUAUAUACGAGGAAGUUGUG [JMF's solution 45] (Eterna round: R96, puzzle: Same State NG 1) | – | 34.7 | – | – | – | –
UGUUGUAUUACAGGAUAUCUAUGAUUUUUAUUAAGAGAAGGGUAUUCACAUGAGGAUCACCCAUGUAUAUACGAGGAAGUUGUG [JMF's solution 70] (Eterna round: R96, puzzle: Same State NG 1) | – | 25.6 | – | – | – | –

Sequence | apparent KD of MS2 coat protein (input ligand: FMN 200 uM) [nM] | apparent KD of MS2 coat protein [1] [nM] | apparent KD of MS2 coat protein (input ligand: none) [nM] | apparent KD of MS2 coat protein [2] [nM] | apparent KD of MS2 coat protein [3] [nM] | apparent KD of MS2 coat protein [4] [nM]
AGCGAACAGGCUAACAUGAGGAUCACCCAUGUGGACUCAUGUUAGGAUAUCGGGAAGGAGGAAACCGAGAAGGGACGGUGAGCC [AK SSNG3-V2-46] (Eterna round: R96, puzzle: Same State NG 3) | 332 | 14.6 | 30.6 | – | – | –
AGAUCAUGACGAGGAUAUGGAACAUGAGGAUCACCCAUGUAUGUUCCAUAACGCGAAUAAAGAAUCCAGAAGGCGUCGUGGUCA [Mat - Same State NG 2 - JL mod - D30] (Eterna round: R96, puzzle: Same State NG 2) | 10.2 | 78.9 | 89.1 | – | – | –
AUUAUACAUGAGGAUCACCCAUGUAAUUAAUCUAGUAAGAUCUAGGAUAUCAGCUCGAUUAGAGCUGAGAAGGAGAUCACAUGU [SSNG3/20-D2] (Eterna round: R96, puzzle: Same State NG 3) | – | 42.9 | – | – | – | –
GGACGUCGAUCUCCUACUUAAACAUGAGGAUCACCCAUGUCACAGGAUAUGAGUCCGAUUAGGACUCAGAAGGGUGCGACGUCC [Fiskers NG3ss - 51] (Eterna round: R96, puzzle: Same State NG 3) | 14 | 12.3 | 18.6 | – | – | –
AGGCUCAGACUAGGAUAUACGUGGUCACAUGAGGAUCACCCAUGUCUCGAGCUUCGGCUCGAGGCGUAGAAGGAGUCUGAGCCA [SSNG2/6-D1] (Eterna round: R96, puzzle: Same State NG 2) | 119 | 260 | 371 | – | – | –
ACUUAGUACAAUUUAGAUCUACAUGAGGAUCACCCAUGUACUGAGGAUAUCAGCUCGAAUAGAGCUGAGAAGGCAGAAGUACUU [SSNG3/8-A1] (Eterna round: R96, puzzle: Same State NG 3) | – | 192 | – | – | – | –
UGUUGUAUUACAGGAUAUCUAUUAUUUUUAAUUAGAGAAGGGUAUUCACAUGAGGAUCACCCAUGUAUAUACGAGGAAGUUGUG [JMF's solution 25] (Eterna round: R96, puzzle: Same State NG 1) | – | 27.5 | – | – | – | –
UGUUUGUUGUGAGGAUAUACAUACACCUUACAUGAGGAUCACCCAUGUUGUUACCUUGAUAGUUAGUAGAAGGCACUUGGUUAU [JR_SSNG2_Sub046] (Eterna round: R96, puzzle: Same State NG 2) | 243 | 140 | 261 | – | – | –
UCUUGGUUUUUGCUCGUUUUUUGUGUUGAACAUGAGGAUCACCCAUGUAUUGUACGGUCCAGUUUAGUAGUGGUCCG [JMF 32] (puzzle: Sensor for hsa-mir-208a) | – | – | – | 26 | 13.5 | 27
CUGUAUCGCGGAGGAUAUGGGCUGAGACCAGGGCAACCCUGGUCAACAUGAGGAUCACCCAUGUCCCAGAAGGCCGCGAUGCUA [Diaraenve] (Eterna round: R96, puzzle: Same State NG 2) | 19.7 | 73.6 | 113 | – | – | –
CUGAGGUGUCAAGGAUAUGCUACCGUUUCGGUAGCAGAAGGUGAUCACAUGAGGAUCACCCAUGUAUGCAUGCGUGAGCGUGCU [JL SSNG1 3.60] (Eterna round: R96, puzzle: Same State NG 1) | – | 17.8 | – | – | – | –
AAGAUGCUCGUAGGAUAUUGGAAAGGAAGUGUACAAGAAGGACGGUGUCACAUGAGGAUCACCCAUGUUACAGUCUAAGGACUA [PowerStrip SSNG 1.16] (Eterna round: R96, puzzle: Same State NG 1) | 21.5 | 13.2 | 20.3 | – | – | –
GUUAGGAAUCUAGCACACAUGAGGAUCACCCAUGUUAGUGGGAAGGAUAUGGUACAGAAACUGUACCAGAAGGUCUUAUUGUUU [Omei SS(NG) 3 AV14] (Eterna round: R96, puzzle: Same State NG 3) | 93.8 | 67.6 | 142 | – | – | –
GCGAACUGUGUAGGAUAUUGAGCACUUUUGGAGCAAGAAGGACACCAAGUGCUGACUAUACAUGAGGAUCACCCAUGUUCAGCA [Eternabot solution 22] (Eterna round: R96, puzzle: Same State NG 1) | – | 21.4 | – | – | – | –
AGUCCAGCCUGAGCUGGACAAAAGCAUGUACAUGAGGAUCACCCAUGUCAUGUACAAGCUUUUUGCAAAUCUUAAUA [Mat - hsa-mir-208a - Mod of JL - D34] (Eterna round: R96, puzzle: Sensor for hsa-mir-208a) | 999 | 14.6 | 1180 | – | – | –
UUAAUGAUGUAAGGAUAUACAUGAGGAUUUCUCGUAGAAGGUACAAGACAUGAGGAUCACCCAUGUGUCGCUCGAAAGAGCGUA [Mat - Same State NG 1 - JL mod - D20] (Eterna round: R96, puzzle: Same State NG 1) | 282 | 113 | 316 | – | – | –

— the supplement of paper PMC9170038
